Experimental data reported in the nanobody polyreactivity screen of Harvey et al. (2022).

Experiment: yeast display, Sf9 membrane polyspecificity reagent, FACS + sequencing; frameworks hold sequencing errors
How it was run: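 A synthetic nanobody library was expressed on Saccharomyces cerevisiae BJ5465 by galactose induction for 36–48 hours. The library was stained for 1 hour at 4 °C with 10% biotinylated, detergent-solubilized Sf9 membrane reagent and enriched with streptavidin microbeads before FACS. Low and high (top ~1%) gates were set on anti-HA fluorescence for expression and streptavidin fluorescence for reagent binding, and each polyreactivity label reflects the gate of origin.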
In the case of “QVQLVESGGGLLQAGGSLRLSFAASGRIYWNTMGWYRQAPGKERELVASISTGGGRTYYADSVKGRFTISRDNAKNTVYLQMNSLKPEDTAVYYCNADFISTRPPKATDEDYWGQGTQVTVSS”, the “polyreactivity (PSR sort gate)” value is reported as “high polyreactivity”. For “QVQLVESGGGLLQAGGSLRLSSAASGRIFYGNTMGWYRQAPGKERELVAAITWRGGSTYYADSVKGRFTISRDNAKNTVYLQMNSLKPEDTAVYYCAAVSYRGRGYWGQGTQVTVSS”, the “polyreactivity (PSR sort gate)” value was “high polyreactivity”. In the case of “QVQLVESGGGLLQAGGSLRLTCAASGFTFSLNTMGWYRQAPAKEREFVAAINSGDSTYADSVKGRYTISRDNAKNTVYLQMNSLKPEDTAVYYCNADPDWWYPYNYWGQGTQVTVSS”, the “polyreactivity (PSR sort gate)” value is reported as “low polyreactivity”. In the case of “QVQLVESGGGLLQAGGSLRLTCAASGRIFGRYAMGWYRQAPGKERELVAAISYSGGSTRYADSVKGRFTISRDNSKNTVYLQMNSLKPEDTAVYYCAAARRFSTHEYWGQGTQVTVSS”, the “polyreactivity (PSR sort gate)” value is reported as “high polyreactivity”. For “QVQLVESGGGLVEAGGSLRLSCAASGFIFSSYVMGWYRQAPGKERELVAAITSGNSTYYADSVKGRFTISRDNAKTTVYLQMNSLKPEDTAVSYCTADSYHTYYYWYDYWGQGTQVTVSS”, the “polyreactivity (PSR sort gate)” value was “low polyreactivity”. With “QVQLVESGGGLVEAGGSLRLSCAASGFTFHYYTMGWYRQAPVKERELVASINYSGGRTYYADSVKGRFTISRDIAMNTVYLQMNSLKPEDTAVYYCNARYKSTYYYWGQGTQVTVSS” the “polyreactivity (PSR sort gate)” value was “high polyreactivity”. In the case of “QVQLVESGGGLVEAGGSLRLSCAASGRIFLSYAMGWYRQAPGKERELVATITDRGGRTYYADSVKGRFTISRDNAKNTVYLQMNSLKAEDTAVDYCAAGLVYRGYRRDYWGQGTQVTVTS”, the “polyreactivity (PSR sort gate)” value is reported as “low polyreactivity”. For “QVQLVESGGGLVEAGGSLRLSCAAYGRTFDYYDMGWYRPAPGKERELVAGITVSSGGTNYADSVKGRFTISRDNAKNTVYLQMNSLNPEDTAVYYCADANYDFYAFDSTYRYNYWGQGTQVTVSS”, the “polyreactivity (PSR sort gate)” value was “low polyreactivity”. In the case of “QVQLVESGGGLVEAGGSLRLSGAASGRSFGIYAMGWYRQAPGKERELVAAITWSGDSTYYADSVKGRFTISRDNAKKTVYLQMNILKPEDTAVYYCAADDVGVTSVRYDYWGQGTLVTVSS”, the “polyreactivity (PSR sort gate)” value is reported as “low polyreactivity”. In the case of “QVQLVESGGGLVEAGGSLRLTCAAYGSIFSAYAMGWYRAAPGKERELVAAITRGTSTNYADSVKGRFTISRDNAKNTVYLQMNSLKPEDTAVYYCAVGYNSKLAVGMYYWGLGTQVTVSS”, the “polyreactivity (PSR sort gate)” value is reported as “low polyreactivity”. For “QVQLVESGGGLVEAGVSLRISCAASGRIFAYNTMGWYRQAPGKERELVAAISWRGGSTYYADSVKGRFTISRDNEKNSVHLQRNSLKPEDTAVYYCAVLSSSLTRFDYWGQGSQVTVSS”, the “polyreactivity (PSR sort gate)” value was “high polyreactivity”. In the case of “QVQLVESGGGLVEEGGSLRLSCAASGSIFSANALGWYRQAPGKERELVACITGDGSTNYADSVKGRFTISRDNAKNTVYLQMNSLKPEDTAVYYCAADIGSWYDYWGQGTQVTVSS”, the “polyreactivity (PSR sort gate)” value is reported as “low polyreactivity”. In the case of “QVQLVESGGGLVHAAGSLRLSCAASGRTFRYNTMGWYRQASGKESELVARITRSGGSTYYADSVKGRFTISRDNAKNTVYLQMNSLKPEDTAVYYCAAVPILVYRWFQYYTGDYDYWGQGTQVTVSS”, the “polyreactivity (PSR sort gate)” value is reported as “low polyreactivity”. With “QVQLVESGGGLVHAGCSLRLSCSASGRISGYAMGWYRQAPGKERELVAAISKSAARTYYADSVKGRFTISRDNAKNTVYLQMNSLKAEDTAVYYCAADKPYRYDYWGQGTQVTVSS” the “polyreactivity (PSR sort gate)” value was “high polyreactivity”. For “QVQLVESGGGLVHAGGILSLSSAASGFTIGYYSMGWYRQAPGKERELVAAINWSGGRTYYGDSVKGRFTISRDIAKNTVYFQMTSLKPEDTAVYYCAADPNKGRQMYYWGQGSQVTVSS”, the “polyreactivity (PSR sort gate)” value was “high polyreactivity”. With “QVQLVESGGGLVHAGGRLRLSCAASGRIFYTYTMGWYSQAPGKERELVATITDGTRTNYADSVKGRFTISRDNAKITVYLQMTSLQPEDTAVYYCNAAGRWHDLYRINYDYWGQGTKVTVSS” the “polyreactivity (PSR sort gate)” value was “low polyreactivity”. With “QVQLVESGGGLVHAGGRLRLSCAASGRISGYAMAWYRQAPRTERELVAAISTRGGTTYYADSVKGRFTISRDNAKNTVYLQMNSLKPEDTAVYFCNAASSRWPEYDFWGQGTQVTVSS” the “polyreactivity (PSR sort gate)” value was “high polyreactivity”. With “QVQLVESGGGLVHAGGSHRLSCAASGFSFKSYAMGWYRQAPGKERELVAAISRRCGSTNYADSVKGRFTISRDNAKNTVYLQMNSLKPEDTAVYYCNADPYNSPYQVSGPYKEDYDYWGQGTQVTVSS” the “polyreactivity (PSR sort gate)” value was “high polyreactivity”. For “QVQLVESGGGLVHAGGSLGLSCAASGSIFYEYVMGWYRQAPGKERELVATIDLNGGSTTYADSVKGRFTISRDNAKNTDYLQMNSLKPEDTAVYYCAAQTGFVSHFFWHYDYWGQGSQVTVSS”, the “polyreactivity (PSR sort gate)” value was “low polyreactivity”. With “QVQLVESGGGLVHAGGSLRLSCAASGFIFNFYAMGWYRQAPGKERELVAAISRTGGSTYYADSVKGRFTISRDNAKNTVYLQMNSLKPEDTAVYYCNAGCGFRSYGYDPWGQGTQVTVSS” the “polyreactivity (PSR sort gate)” value was “high polyreactivity”. With “QVQLVESGGGLVHAGGSLRLSCAASGFILTGYTMGWYRQAPGKEMELVAAISYRGGSTYYADSVKGRFTISRDNAKNTVYLQMNSLKPEDTAVYYCNAVWSNFRLGYDYWGQGTQVTVSS” the “polyreactivity (PSR sort gate)” value was “high polyreactivity”. For “QVQLVESGGGLVHAGGSLRLSCAASGFTFEYNAMGWYRQAPGKERELVAVITYRGGSTYYADSVKGRFTISRDNAKHTVYLQMNSLKPEDTAVYYCAADSVTYGGDYWGQGTQVTVSS”, the “polyreactivity (PSR sort gate)” value was “high polyreactivity”. In the case of “QVQLVESGGGLVHAGGSLRLSCAASGFTFRGYAMGWYRPSPGKEREFVAAISRSGGSTNYADSVKGRFTISRDNAKNTVYLQMNSLKPEDTAVYYCAAGWNPYDYWGQGTQVTVSS”, the “polyreactivity (PSR sort gate)” value is reported as “high polyreactivity”. In the case of “QVQLVESGGGLVHAGGSLRLSCAASGFTFRYGMGWYRQAPRKERELVAAISNTGGSTYYADSVKGRFTISRDNAKNTVYLKMNSLKPEDTSVYYCAAAGGLWWVFYALDYWGQGTQVSVSS”, the “polyreactivity (PSR sort gate)” value is reported as “low polyreactivity”. In the case of “QVQLVESGGGLVHAGGSLRLSCAASGFTFYYYAMGWYRPAPGKERELVAAISSRGGNSYYADSVKGRFTISRDNAKNTVYLQMNSLKPEDTAVYYCASVPLKYDYWGQGTQVTVSS”, the “polyreactivity (PSR sort gate)” value is reported as “high polyreactivity”. In the case of “QVQLVESGGGLVHAGGSLRLSCAASGFTIRSYVMGWYRQAPGKERELVAAIRRSGGSTYYADSVKGRFTISRDNAKNTVYLQMNCLKPEDTAVYYCNADIRAYTVLTGGYIYDYWGQGTQVTVSS”, the “polyreactivity (PSR sort gate)” value is reported as “high polyreactivity”. With “QVQLVESGGGLVHAGGSLRLSCAASGGTFSLNAMGWYRKAPGTERELVAAISKRSSTTYYADSVKGRFTISRDNAKNTVYLQMNSLKPEDTSVYYCAARVLRSRKPGRGYDYWGQGTQVTVSS” the “polyreactivity (PSR sort gate)” value was “high polyreactivity”. For “QVQLVESGGGLVHAGGSLRLSCAASGILFGYYAIGWYRQAPGKERELVAAITSGSSTDYADSVKGRFTISRDNAKNTFYLQMNSLKPEDTAVYYCNAVTSASTYTFPFDYWGQGTQVTVSS”, the “polyreactivity (PSR sort gate)” value was “low polyreactivity”. With “QVQLVESGGGLVHAGGSLRLSCAASGITFEGNAMGWNRQAPGTERELVAAIRSSGTSTYYADSVKGRFTFSRDNEKKTVYLQMNSLKPEDTAVYYCNRARSSSRYDYWGEGTQVTVSS” the “polyreactivity (PSR sort gate)” value was “low polyreactivity”. With “QVQLVESGGGLVHAGGSLRLSCAASGITFVYYAMGWYRQAPGKERELVAAIDDTGTTYYADSVKGRFTISRDNAKNTVYLQMNSLKPEDTAVYYCAADDWGWFFGGGDYWGQGTQVTVSS” the “polyreactivity (PSR sort gate)” value was “high polyreactivity”. With “QVQLVESGGGLVHAGGSLRLSCAASGKIFGLYAMGWYRKAPGKERELVAAISYRTDSTYADSVKGRFTISRDNAKNTVYLQMNSLKPEDTAVYYCAADLRVSVRYYYWGQGTQVTVSS” the “polyreactivity (PSR sort gate)” value was “low polyreactivity”. In the case of “QVQLVESGGGLVHAGGSLRLSCAASGLTFGAYAMGWYRQAPGEERELVATITNSGRTYYADSVKGRFTISRDNAKNTVYLQMNSLKPEDTAVYYCAAQPDGQAMDHWGQGTQVTVSS”, the “polyreactivity (PSR sort gate)” value is reported as “low polyreactivity”. In the case of “QVQLVESGGGLVHAGGSLRLSCAASGLTFVDNAMGWYRQAPGKERELVAAITKRGGRTYYADSVKGRFTISRDNAKNTVYSQMNSLKPEDTAVYYCAREAGNDSSRRLDYWGQGTQVTVSS”, the “polyreactivity (PSR sort gate)” value is reported as “low polyreactivity”. In the case of “QVQLVESGGGLVHAGGSLRLSCAASGRLFYPYAMGWYRQAPGKERELVAAITYITGSTYADSVKGRFTISRDNAKNTVYLQMNSLKPEDTAVYYCAADYESGDYWGQGTQVTVSS”, the “polyreactivity (PSR sort gate)” value is reported as “low polyreactivity”. For “QVQLVESGGGLVHAGGSLRLSCAASGRTFATNTIGWYRQAPGKERELVAAITFSGGSTYYADSVKGRFTISRDTAKIPRYLQMNCLKPEDNEVYYCNVRSPYYSYRYRYGYWGQGSQVTVSS”, the “polyreactivity (PSR sort gate)” value was “high polyreactivity”. In the case of “QVQLVESGGGLVHAGGSLRLSCAASGRTFATYAMGWYRQAPGKERELVAAITSGGSTYYADSVKGRFTISRDNAKNTVYLQMNSLKPEDTAVYYCAADLSTYRRGFDYWGQGTHVTVSS”, the “polyreactivity (PSR sort gate)” value is reported as “high polyreactivity”. With “QVQLVESGGGLVHAGGSLRLSCAASGRTFGIYTMGWYRQAPGKERELVASTYYADSVKGRFTISRDNAKNTVYLQMNSLKPEDTAVYYCNVERLKKSQVWYGYPNDYWGQGTQVTVSS” the “polyreactivity (PSR sort gate)” value was “low polyreactivity”. In the case of “QVQLVESGGGLVHAGGSLRLSCAASGRTFWAYAMGWYRQAPGKERELVAAISASRGSTYYADSVKGRFTISRDTAKNTVYLEMNSLTAEDTAVYYCRLVSNGRLYDYWGQGTQATVSS”, the “polyreactivity (PSR sort gate)” value is reported as “low polyreactivity”. In the case of “QVQLVESGGGLVHAGGSLRLSCAASGRTFYPNVMGWYRQAPGKERELVAAIRARGGSTYYADSVKGRFTISRDNAKNTVYLQMNSLKPEDTAVYYCARDTGDYLQFDYWGQGTQVTVSS”, the “polyreactivity (PSR sort gate)” value is reported as “high polyreactivity”. For “QVQLVESGGGLVHAGGSLRLSCAASGRTIGYYAMGWYRQAPGKERELVAAISWSGGSTYYADSVKGRFTISRDIAKNTVYLQMNSLKPEATAVYYCAAKYSFRAAHYYYWGQGTQVTVSS”, the “polyreactivity (PSR sort gate)” value was “high polyreactivity”. In the case of “QVQLVESGGGLVHAGGSLRLSCAASGRTLWGYVMGWYREAPGKERELVAVITASGGSTYYADSVNGRFTISRDNAKNTVYLQMYSLKPEDTAVYYCNADSRAERYFWSFVENDYWVQGTQVTVSS”, the “polyreactivity (PSR sort gate)” value is reported as “low polyreactivity”. For “QVQLVESGGGLVHAGGSLRLSCAASGRTLWYYTMGWYRQAPGKEMELVADITRGTSTNYADSVKGRFTISRDNAKNTVYLQMNILKPEDTAVYYCNRAHGRSRYSRDYDSWGQGTQVTVSS”, the “polyreactivity (PSR sort gate)” value was “low polyreactivity”. For “QVQLVESGGGLVHAGGSLRLSCAASGSIFAYYAMGWYRQAPGKERELVARITYSTDGTYYADSVKGRFTISRDNAKNTVYLQMNSLKPEDTAVYFCAVDTWWGFKRYKFDYWGQGTQVTVSS”, the “polyreactivity (PSR sort gate)” value was “low polyreactivity”.
